Article doi:10.1101/476960
Where two headings read alike, the source gives them in different places.

Experiments:
Ago2 [1] = target: T1, Ago2 (Homo sapiens, UniProt Q9UKV8 1-859); experiment: filter binding
Ago2 [2] = target: T1, Ago2; experiment: filter binding; remark: listed apart in the source
Ago2 [3] = target: T1, Ago2; experiment: filter binding; remark: listed apart in the source
Ago2 D669A = Ago2 D669A (Homo sapiens, UniProt Q9UKV8 1-859, D669A); experiment: X-ray crystallography
Chain of Ago2 D669A (Q9UKV8 whole entry D669A): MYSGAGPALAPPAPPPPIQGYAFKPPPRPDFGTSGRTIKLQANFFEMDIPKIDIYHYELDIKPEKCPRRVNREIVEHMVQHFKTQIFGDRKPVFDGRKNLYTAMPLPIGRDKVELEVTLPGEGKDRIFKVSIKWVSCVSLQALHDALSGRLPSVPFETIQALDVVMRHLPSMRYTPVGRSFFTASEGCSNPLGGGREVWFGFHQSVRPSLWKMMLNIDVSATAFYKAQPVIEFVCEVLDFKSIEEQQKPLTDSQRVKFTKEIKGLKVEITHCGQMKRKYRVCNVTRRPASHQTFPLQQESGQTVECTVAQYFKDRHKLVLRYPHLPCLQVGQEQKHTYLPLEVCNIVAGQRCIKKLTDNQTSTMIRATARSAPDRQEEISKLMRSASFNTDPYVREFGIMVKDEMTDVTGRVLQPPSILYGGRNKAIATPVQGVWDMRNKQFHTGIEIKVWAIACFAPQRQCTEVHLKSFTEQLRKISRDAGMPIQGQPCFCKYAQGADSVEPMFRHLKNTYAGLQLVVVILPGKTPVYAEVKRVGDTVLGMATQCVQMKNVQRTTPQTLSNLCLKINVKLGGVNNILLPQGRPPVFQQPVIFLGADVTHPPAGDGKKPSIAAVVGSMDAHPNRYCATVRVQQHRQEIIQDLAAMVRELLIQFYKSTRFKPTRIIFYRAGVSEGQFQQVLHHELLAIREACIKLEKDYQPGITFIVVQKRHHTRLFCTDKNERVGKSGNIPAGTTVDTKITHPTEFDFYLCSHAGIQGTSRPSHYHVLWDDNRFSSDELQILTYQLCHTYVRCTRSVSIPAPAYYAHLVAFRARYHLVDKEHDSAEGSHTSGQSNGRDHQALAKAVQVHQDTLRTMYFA

T1 sequence (Q9UKV8 whole entry): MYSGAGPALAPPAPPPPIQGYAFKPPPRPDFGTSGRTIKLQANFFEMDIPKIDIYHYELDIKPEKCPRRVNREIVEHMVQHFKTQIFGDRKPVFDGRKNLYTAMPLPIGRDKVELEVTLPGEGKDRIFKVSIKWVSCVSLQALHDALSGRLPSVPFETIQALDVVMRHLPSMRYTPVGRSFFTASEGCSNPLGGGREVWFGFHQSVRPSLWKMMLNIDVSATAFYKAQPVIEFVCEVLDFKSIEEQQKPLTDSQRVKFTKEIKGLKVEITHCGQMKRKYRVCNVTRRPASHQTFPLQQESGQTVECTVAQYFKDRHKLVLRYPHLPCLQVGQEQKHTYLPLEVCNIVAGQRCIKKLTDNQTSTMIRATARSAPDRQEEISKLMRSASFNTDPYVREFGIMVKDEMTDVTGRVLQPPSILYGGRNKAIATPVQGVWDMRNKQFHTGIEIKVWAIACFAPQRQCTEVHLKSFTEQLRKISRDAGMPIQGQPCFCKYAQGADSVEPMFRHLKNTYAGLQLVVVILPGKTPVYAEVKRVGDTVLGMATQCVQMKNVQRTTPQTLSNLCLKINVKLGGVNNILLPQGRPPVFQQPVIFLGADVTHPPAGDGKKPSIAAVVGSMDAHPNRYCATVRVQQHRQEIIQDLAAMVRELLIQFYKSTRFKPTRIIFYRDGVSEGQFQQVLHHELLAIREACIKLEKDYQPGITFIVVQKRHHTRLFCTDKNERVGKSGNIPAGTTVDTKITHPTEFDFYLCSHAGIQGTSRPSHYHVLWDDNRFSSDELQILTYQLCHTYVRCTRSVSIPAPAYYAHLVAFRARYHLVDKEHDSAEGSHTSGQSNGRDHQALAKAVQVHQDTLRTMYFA

B1: EV2 guide / g13-g14 target (mixed)
RNA 1: UGGAGUGUGACACCGGCGAAAG
RNA 2: GGCAAAACACUCCUAA
modifications: 5' phosphate on guide
Question: For B1, which binding signal (Ago2 [1]) is on record?
Answer: The binding signal was > 3.5 fold affinity vs seed-only N13.

B2: weak-sup miR-122 / 4 nt bridge (mixed)
RNA 1: UGGAGUGUGACACUAUCGAAAG
RNA 2: AUAGAAAAACACUCCUAA
modifications: 5' phosphate on guide
Question: Which binding signal (Ago2 [2]) does the source give for B2 here?
Answer: Its binding signal is > 10 fold affinity vs seed-only N2.

B3: strong-sup miR-122 / 15 nt bridge (mixed)
RNA 1: UGGAGUGUGACAGCGGCGAAAG
RNA 2: CCGCAAAAAAAAAAAAAAAACACUCCUAA
modifications: 5' phosphate on guide
Question: Which binding signal (Ago2 [3]) does the source give for B3 here?
Answer: The binding signal was > 10 fold affinity vs seed-only N7.

B4: miR-122 21mer / 2-16 perfect target (mixed)
RNA 1: UGGAGUGUGACAAUGGUGUUU
RNA 2: CCAUUGUCACACUCCAAA
modifications: 5' phosphate on guide
Question: Does B4 bind (Ago2 D669A)?
Answer: Result: binds

B5: strong-sup miR-122 / 2 nt bridge (mixed)
RNA 1: UGGAGUGUGACAGCGGCGAAAG
RNA 2: CCGCAAACACUCCUAA
modifications: 5' phosphate on guide
Question: How did the binding signal (Ago2 [3]) turn out when B5 was run?
Answer: The binding signal was > 20 fold affinity vs seed-only N7.

B6: strong-sup miR-122 / 1 nt bridge (mixed)
RNA 1: UGGAGUGUGACAGCGGCGAAAG
RNA 2: CCGCAACACUCCUAA
modifications: 5' phosphate on guide
Question: Which binding signal (Ago2 [3]) does the source give for B6 here?
Answer: The binding signal was > 10 fold affinity vs seed-only N7.

B7: weak-sup miR-122 / 10 nt bridge (mixed)
RNA 1: UGGAGUGUGACACUAUCGAAAG
RNA 2: AUAGAAAAAAAAAAACACUCCUAA
modifications: 5' phosphate on guide
Question: With B7 as the binder, how does the binding signal (Ago2 [2]) read?
Answer: The binding signal was 1.9 fold affinity vs seed-only N2.

B8: strong-sup miR-122 / 4 nt bridge (mixed)
RNA 1: UGGAGUGUGACAGCGGCGAAAG
RNA 2: CCGCAAAAACACUCCUAA
modifications: 5' phosphate on guide
Question: How did the binding signal (Ago2 [3]) turn out when B8 was run?
Answer: The binding signal was > 20 fold affinity vs seed-only N7.
